PMC7897479

What was measured:
SpCas9-His [1] = molecular target: T1, SpCas9-His (Streptococcus pyogenes, UniProt Q99ZW2 1-1368); assay: SPR
SpCas9-His [2] = molecular target: T1, SpCas9-His; assay: EMSA

T1 sequence (Q99ZW2 whole entry): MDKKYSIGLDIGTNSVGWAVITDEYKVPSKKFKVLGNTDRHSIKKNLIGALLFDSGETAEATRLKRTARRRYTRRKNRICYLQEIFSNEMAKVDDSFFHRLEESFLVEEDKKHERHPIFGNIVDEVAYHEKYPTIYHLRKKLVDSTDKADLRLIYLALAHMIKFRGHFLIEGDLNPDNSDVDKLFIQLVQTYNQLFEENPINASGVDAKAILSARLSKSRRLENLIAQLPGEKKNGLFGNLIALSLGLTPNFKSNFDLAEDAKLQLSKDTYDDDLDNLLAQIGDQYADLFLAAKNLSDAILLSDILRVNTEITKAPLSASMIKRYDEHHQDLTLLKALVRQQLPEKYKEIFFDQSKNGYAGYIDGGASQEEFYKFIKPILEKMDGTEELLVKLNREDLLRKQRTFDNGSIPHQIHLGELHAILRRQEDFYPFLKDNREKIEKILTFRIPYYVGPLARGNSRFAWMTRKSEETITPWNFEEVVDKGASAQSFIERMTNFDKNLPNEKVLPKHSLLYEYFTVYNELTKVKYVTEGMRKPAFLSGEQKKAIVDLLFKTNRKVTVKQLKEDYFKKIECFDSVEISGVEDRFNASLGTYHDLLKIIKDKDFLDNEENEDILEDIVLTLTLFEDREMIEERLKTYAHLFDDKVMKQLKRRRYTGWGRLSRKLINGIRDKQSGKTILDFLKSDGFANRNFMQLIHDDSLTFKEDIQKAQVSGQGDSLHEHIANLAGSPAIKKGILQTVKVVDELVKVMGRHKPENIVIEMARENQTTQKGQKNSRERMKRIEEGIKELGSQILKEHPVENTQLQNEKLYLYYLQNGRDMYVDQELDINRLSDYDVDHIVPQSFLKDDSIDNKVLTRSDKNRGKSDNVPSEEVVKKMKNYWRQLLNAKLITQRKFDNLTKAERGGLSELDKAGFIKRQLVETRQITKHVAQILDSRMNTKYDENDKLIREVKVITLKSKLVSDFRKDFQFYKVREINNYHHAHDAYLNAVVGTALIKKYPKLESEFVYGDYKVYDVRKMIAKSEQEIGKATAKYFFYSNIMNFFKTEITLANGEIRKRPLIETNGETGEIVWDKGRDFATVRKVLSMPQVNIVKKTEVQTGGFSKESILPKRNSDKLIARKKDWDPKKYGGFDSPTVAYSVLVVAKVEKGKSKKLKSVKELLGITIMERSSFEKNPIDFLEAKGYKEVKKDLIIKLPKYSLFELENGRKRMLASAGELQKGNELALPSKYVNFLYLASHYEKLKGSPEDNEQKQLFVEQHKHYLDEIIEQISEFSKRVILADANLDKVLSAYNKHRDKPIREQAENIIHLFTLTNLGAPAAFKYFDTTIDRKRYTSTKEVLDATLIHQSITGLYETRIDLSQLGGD

Binder | binding result (SpCas9-His [2]) | other results
GAGGCTCTCACATCGCGCCTTTCCCCAGCTTTCGGTGTGAGAGCCTC (structured_DNA) [S21 for Biacore] |  | Kd (SpCas9-His [1]): 0.63 nM
GAGGCTCTCACAGTAATGTGAGAGCCT (structured_DNA) [Loop-NC for Biacore] |  | binding result (SpCas9-His [1]): no binding
GAGGCTCTCACAGCGCGCCTTTCGTTGTGAGAGCCTC (structured_DNA) [SS21 NM2] | no binding | 
GAGGCTCTCACAGTAATGTGAGAGCCT (structured_DNA) [Loop-NC for EMSA] | no binding | 
GGTCCTCACACCGCTGTGTGCCGCAACACTGTGAGGACC (structured_DNA) [SA-Ap (streptavidin aptamer)] | no binding | 
